Measured values as given in US20190023750A1 (SPOGEN BIOTECH, published 2019).

Target: FLS2 receptor (in corn tissue) (corn (taken from the assay tissue; …)
Assay: cell-based or functional assay

QRLSSGKRINSASDDAAGLAIA [Bt.Flg22-Syn03, Mutant D1Q (SEQ ID NO: 573)]
Avg. Activity (%), ROS activity in corn (5828 YX) at 5 nM polypeptide, relative to Bt.4Q7Flg22: 122%
